Experimental data as given in patent US11666671B2, “Spatial mapping of kidney functions” (Northwestern University, priority 2018, dated 2023).
Like-named read-outs stand apart in the source and are kept apart here.

Columns and labels:
[1] = Conventional renal scintigraphy (renogram) with radionuclide-bound tracers (FIG. 1)
Description: FIG. 1 is a low-resolution renogram of a patient using conventional radionuclide-bound tracer ^99mTc DTPA with renal scintigraphy.

FcRn = assay: Binding of Fc to FcRn on renal tubular epithelial cells; format: in vivo; settings: surface of renal tubular epithelial cells
[2] = Renal histology (immunofluorescence) and renal tubular handling of the carriers (FIGS. 3, 4); settings: ^99mTc/HYNIC-labelled carriers
[3] = mouse, in vivo
[4] = not given; remark: listed apart in the source
[5] = not given; remark: listed apart in the source
[6] = steady state, from 45 min onward, FIG. 8A

Q: Which “time to wash out of the system” value [1] does the source give for O=C([O-])CN(CCN(CC(=O)[O-])CC(=O)[O-])CCN(CC(=O)[O-])CC(=O)[O-].[99Tc+4] [^99mTc DTPA, ^99mTc Diethylenetriamine-Pentaacetic Acid] here?
A: Its value is at most 20 min.

Q: For “Fc: imaging agent using ^99mTc as detection moiety, HYNIC as chelation moiety, and Fc alone as carrier moiety [reference compound]”, which FcRn binding (FcRn) is on record?
A: The FcRn binding was “binds the FcRn on the surface of renal tubular epithelial cells”.

Q: What about the “renal tubular handling / fate of the carrier” value [2] of the same compound?
A: The value was “reenters blood circulation via peritubular capillaries”.

Q: With “PBT-Fc carrier moiety: N-terminal His6 tag, PBT from human VEGFA (amino acids 131-163), and Fc of human IgG1, expressed in E. coli” as the compound, how does the “distribution of the probe in renal histology (immunofluorescence)” value [3] read?
A: Its value is “mainly in the tubular basement membrane”.

Q: Which “time the agent stayed in the subject's system for steady state imaging” value (FIG. 7) does the source give for “^99mTc/HYNIC/PBT-Fc: ^99mTc as the detection moiety, HYNIC as the chelation moiety, and PBT-Fc as the carrier moiety” here?
A: The value was 60 min.

Q: What about the “renal fate / urinary excretion of the agent” value (FIG. 7, steady state) of the same compound?
A: The value was “concentrated in the kidney without being excreted into urine”.

Q: And the “kidney retention compared with Fc-alone and Duramycin agents” value (FIGS. 6 and 7)?
A: Its value is “accumulate and remain the kidneys of the subjects for much longer than that of the Fc-alone and Duramycin agents”.

Q: What about the “renal fate / urinary excretion of the agent” value ([4]; after administration to test subjects) of the same compound?
A: Its value is “fixed (e.g., permanently) at the basement membrane of the downstream renal tubules without being further excreted into urine”.

Q: And the “time after which radio signals accumulated in the kidney reach the plateau” value ([4]; glomerular filtration phase, tail vein injection)?
A: Its value is 10 to 20 min.

Q: What about the “intrarenal localization (section view)” value ([5]; FIG. 8B) of the same compound?
A: Its value is “localization of PBT-Fc to the kidney cortex”.

Q: What about the “^99mTc signal in liver and bladder” value [5, 6] of the same compound?
A: Its value is “low levels of signal accumulation in the liver and the bladder”.

Q: What about the “^99mTc signal in the kidney” value [5, 6] of the same compound?
A: Its value is “concentrated in the kidney”.

Q: What about the “renal tubular handling / fate of the carrier” value [2] of the same compound?
A: The value was ““trapped” in the tubular basement membrane (TBM)”.
